Substitutions are numbered along the chain they refer to. Names and notes keep the numbering of the source. Values belong to the binder of their own block, whether it stands above or below them.
Key:
[1] = molecular target: T1, rat betaglycan ZP-C domain (BG_(ZP-C)), mammalian-expressed; experiment: SPR; conditions: chain shown with the change; analyte: BGZP-C; parent: est. 95; read off a plot
T1 chain: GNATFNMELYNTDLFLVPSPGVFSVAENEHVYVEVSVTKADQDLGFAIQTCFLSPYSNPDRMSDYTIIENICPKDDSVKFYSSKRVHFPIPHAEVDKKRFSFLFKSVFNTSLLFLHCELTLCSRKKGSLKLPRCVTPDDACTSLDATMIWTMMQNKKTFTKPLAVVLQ

[2] = molecular target: T2, inhibin A (InhA), mature heterodimer, unlabelled, P05111;P08476; experiment: SPR; conditions: chain shown with the change
T2 chain 1: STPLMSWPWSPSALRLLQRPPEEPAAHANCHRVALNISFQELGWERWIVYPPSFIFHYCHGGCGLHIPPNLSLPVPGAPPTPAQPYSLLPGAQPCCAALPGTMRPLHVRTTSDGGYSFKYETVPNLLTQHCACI
T2 chain 2: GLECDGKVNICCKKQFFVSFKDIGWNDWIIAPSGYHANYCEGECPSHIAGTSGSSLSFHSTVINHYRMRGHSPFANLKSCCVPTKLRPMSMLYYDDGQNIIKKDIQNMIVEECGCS

[3] = molecular target: TGF-β2 (Q57A, K60A, L64A) (human); experiment: SPR; BIAcore T200; TGF-β2 WT or TGF-β2 mutants amine-coupled (EDC-NHS) to a CM4 chip, max 400 RU; zfBGO WT or BGZP-C WT injected, 2-fold dilution series 250 - 15.6 nM; 10 mM CHES, 150 mM NaCl, 3 mM EDTA, 0.01% P20, pH 8.0; 100 µl/min; 1:1 kinetic model with drift; three consecutive repeats
[4] = molecular target: TGF-β2 (Y50A, L51A) (human); experiment: as above
[5] = molecular target: T3, TGF-β2 (growth factor domain, wild type) (human); experiment: as above
T3 sequence (P61812 303-414, looked up): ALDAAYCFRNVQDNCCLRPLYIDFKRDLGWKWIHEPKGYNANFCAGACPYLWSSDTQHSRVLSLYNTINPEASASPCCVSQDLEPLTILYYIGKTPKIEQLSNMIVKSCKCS

[6] = molecular target: T3, TGF-β2 (growth factor domain, wild type) (human); experiment: SPR; TGF-β2 immobilised on the chip surface; ratBGO, zfBGO, ratBGO-zfBL or ratBGO-Y248A injected, 2-fold dilution series 500 - 31.3 nM; three consecutive repeats
[7] = surface: InhA, parent: est. 1100 nM, read off a plot

B1: TGF-β2 homodimer (growth factor domain), unlabelled Y50A; L51A (protein)
chain: T3 sequence (P61812 303-414, looked up) with Y50A, L51A
Kd [1]: 110 nM

B3: rat betaglycan ZP-C domain (BG_(ZP-C)), mammalian-expressed A158E (protein)
chain: T1 chain with A146E
Kd ([2]; 500 - 15.6 nM, 2-fold dilution series): 1810 nM
Kd [2, 7]: 1800 nM

B4: rat betaglycan ZP-C domain (BGZP-C), wild type (domain or fragment)
chain: T1 chain
Kd [3]: 99 nM
Kd [4]: 113 nM
Kd [5]: 95 nM

Other lines, results leading:

Kd [2, 7]: 850 nM
B2: rat betaglycan ZP-C domain (BG_(ZP-C)), mammalian-expressed N82Y (protein)
chain: T1 chain with N70Y

Kd [6]: 72 nM
B5: rat betaglycan orphan domain (ratBGO), wild type (domain or fragment)
chain: CELSPINASHPVQALMESFTVLSGCASRGTTGLPREVHVLNLRSTDQGPGQRQREVTLHLNPIASVHTHHKPIVFLLNSPQPLVWHLKTERLAAGVPRLFLVSEGSVVQFPSGNFSLTAETEERNFPQENEHLLRWAQKEYGAVTSFTELKIARNIYIKVGEDQVFPPTCNIGKNFLSLNYLAEYLQPKAAEGCVLPSQPHEKEVHIIELITPSSNPYSAFQVDIIVDIRPAQEDPEVVKNLVLILKCKKSVNWVIKSFDVKGNLKVIAPNSIGFGKESERSMTMTKLVRDDIPSTQENLMKWALDNGYRPVTSYTMAPVANRFHLRLEN

Kd [6]: 102 nM
B6: ratBGO-Y248A (domain or fragment)
chain: B5 chain with Y218A
